Data published in patent US20230357387A1 (published 2023).
Positions count from the first letter of the chain named.

B1: 63A11 H3/L0 (antibody)
chain 1: not shown
chain 2: DIVMTQSPDSLAVSLGERATINCRASKSVSTSGYSYMHWYQQKPGQPPKLLIYLASNLESGVPDRFSGSGSGTDFTLTISSLQAEDVAVYYCQHSRELPLTFGGGTKVEIKRTVAAPSVFIFPPSDEQLKSGTASVVCLLNNFYPREAKVQWKVDNALQSGNSQESVTEQDSKDSTYSLSSTLTLSKADYEKHKVYACEVTHQGLSSPVTKSFNRGEC
B2: 63A11 H2/L1 (antibody)
chain 1: not shown
chain 2: B1 chain 2 with M4L
B3: 63A11 H1/L0 (antibody)
chain 1: not shown
chain 2: B1 chain 2
B4: 63A11 H1/L1 (antibody)
chain 1: not shown
chain 2: B1 chain 2 with M4L
B5: 63A11 H0/L1 (antibody)
chain 1: not shown
chain 2: B1 chain 2 with M4L
B6: 63A11 H2/L0 (antibody)
chain 1: not shown
chain 2: B1 chain 2
B7: 63A11 H0/L0 (antibody)
chain 1: not shown
chain 2: B1 chain 2
B8: 63A11 H3/L1 (antibody)
chain 1: not shown
chain 2: B1 chain 2 with M4L
B9: 63A11 parental antibody (antibody, V domains shown)
VH: EVQLVESGGGLVKPGGSRKLSCAASGFTFSDHGMHWVRQAPEKGLEWVAYISSGSSAIFYADTVKGRFTMSRDNAKNTLFLQMTSLRSEDTAMYFCARWTNLYAMDYWGQGTSVTVSS
VL: DIVLTQSPASLAVSLGQRATISCRASKSVSTSGYSYMHWYQQKPGQPPKLLIYLASNLESGVPARFSGSGSGTDFTLNIHPVEEEDAATYYCQHSRELPLTFGAGTKLELKR
B10: 63A11_H2/_L0 (antibody)
chain 1: not shown
chain 2: B1 chain 2
B11: 63A11_H0/_L1 (antibody)
chain 1: not shown
chain 2: B1 chain 2 with M4L
B12: 63A11_H3/_L0 (antibody)
chain 1: not shown
chain 2: B1 chain 2
B13: 63A11_H2/_L1 (antibody)
chain 1: not shown
chain 2: B1 chain 2 with M4L
B14: 63A11_H3/_L1 (antibody)
chain 1: not shown
chain 2: B1 chain 2 with M4L
B15: 63A11_H1/_L0 (antibody)
chain 1: not shown
chain 2: B1 chain 2
B16: 63A11_H1/_H1 (antibody)
chain 1: not shown
chain 2: B1 chain 2 with M4L
B17: 63A11_H0/_L0 (antibody)
chain 1: not shown
chain 2: B1 chain 2
B18: 51B12 H0L3 (antibody)
chain 1: not shown
chain 2: B1 chain 2 with M4L, L50F, L98V, L100Y
B19: 51B12 H0L0 (antibody)
chain 1: not shown
chain 2: B1 chain 2 with L98V, L100Y
B20: 51B12H0L1 (antibody)
chain 1: not shown
chain 2: B1 chain 2 with M4L, L98V, L100Y
B21: *51B12 H0L2 (antibody)
chain 1: not shown
chain 2: B1 chain 2 with L50F, L98V, L100Y
B22: 63A11 H0L1 (antibody)
chain 1: not shown
chain 2: B1 chain 2 with M4L

Target: T1, human ZIP12 extracellular domain expressed as a GST fusion protein (UniProt Q504Y0 1-202)
Assay: ELISA

EC50 | Binder
0.002 µg/mL | B1
0.0016 µg/mL | B2
0.0018 µg/mL | B3
0.0015 µg/mL | B4
0.0016 µg/mL | B5
0.0018 µg/mL | B6
0.0018 µg/mL | B7
0.0019 µg/mL | B8
0.0017 µg/mL | B9

Target: human ZIP12 on human ZIP12 expressing transfectant cells (UniProt Q504Y0 1-691)
Assay: flow cytometry

EC50 | Binder
0.583 µg/mL | B1
0.586 µg/mL | B2
0.508 µg/mL | B3
0.515 µg/mL | B4
0.338 µg/mL | B5
0.411 µg/mL | B6
0.778 µg/mL | B7
0.5 µg/mL | B8
0.233 µg/mL | B9

Target: T1, human ZIP12 extracellular domain …
Assay: SPR; replicate 1

Kd | Binder
2.1 nM | B10
0.888 nM | B11
1.23 nM | B12
0.97 nM | B13
1.28 nM | B14
1.32 nM | B15
1.82 nM | B16
2.38 nM | B17
0.757 nM | B9

Target: T1, human ZIP12 extracellular domain …
Assay: SPR; replicate 2

Kd | Binder
2.04 nM | B10
0.889 nM | B11
1.62 nM | B12
1.14 nM | B13
1.41 nM | B14
1.62 nM | B15
1.96 nM | B16
1.95 nM | B17
0.757 nM | B9

Target: T1, human ZIP12 extracellular domain …
Assay: SPR; replicate 1
Remark: another data set of the same source

Kd | Binder
0.605 nM | B18
1.39 nM | B19
4.17 nM | B20
0.706 nM | B21

Target: T1, human ZIP12 extracellular domain …
Assay: SPR; replicate 2
Remark: another data set of the same source

Kd | Binder
0.785 nM | B18
1.39 nM | B19
1.83 nM | B20
2.16 nM | B21

Target: T1, human ZIP12 extracellular domain …
Assay: SPR; summary value

Kd | Binder
0.7 nM | B18
0.9 nM | B22
